One assay has as its target 6A5. The assay is described as follows: BLI; 500 nM antigen.
For a further assay, the target named is 5G10. The assay is described as follows: BLI; 500 nM antigen.

B1: LA0591 (other)
chain: VNPDQYCPASKKENHNIRIKRTLPPDFQLTEEWLRRLYDIATSASLTEGQIHGICGVCLLQTFQMLAELQEYHSHGPLQGGGYFFNTAPDTDPFDSFRQRYPELDTMLTDAATAYGPAYNTTRLLTLVSAMTMMPQYEWTPSREFTTRSDMHSHIRSLIDSPPGSIWLGLMQRRESDETLRWHALPILRTSQGLIVIQTRVSTMSFELYRLYLTPSTSIVQIINDYLEEADRTLTVLVTIQLEQAYQNLFDFMVSNMNCTGEGENRRGSGGYPTSATVNQCSGGRCALPNW
Consider B1, for which the Kd in the assay with 6A5 and with 5G10 was less than 1 pM in each case.

The values are drawn from patent publication US20240277823A1 (published 2024).
